From paper PMC10809841, “Transferrin Is Up-Regulated by Microbes and Acts as a Negative Regulator of Immunity to Induce Intestinal Immunotolerance” (Research, 2024) come the findings set out here.

Test [1] deals with T1, transferrin (UniProt P02787 20-698).
T1 construct: transferrin (serotransferrin), the iron transporter of serum; probably the mature plasma protein; also called Tf; WT-Tf
Nature of the test: SPR; BIAcore 2000; transferrin coupled at a CM5 sensor chip, CD14 flowed over; details in the Supplementary Materials (not shown). The note with it: both partners purified. Background: In SPR one partner is held on a chip, and binding of the other changes the refractive index at the surface.

Test [2] concerns the target T1, transferrin. Nature of the test: not stated; direct binding of TC6 (Fig. S9C to E); method not given.

T1 sequence (P02787 20-698): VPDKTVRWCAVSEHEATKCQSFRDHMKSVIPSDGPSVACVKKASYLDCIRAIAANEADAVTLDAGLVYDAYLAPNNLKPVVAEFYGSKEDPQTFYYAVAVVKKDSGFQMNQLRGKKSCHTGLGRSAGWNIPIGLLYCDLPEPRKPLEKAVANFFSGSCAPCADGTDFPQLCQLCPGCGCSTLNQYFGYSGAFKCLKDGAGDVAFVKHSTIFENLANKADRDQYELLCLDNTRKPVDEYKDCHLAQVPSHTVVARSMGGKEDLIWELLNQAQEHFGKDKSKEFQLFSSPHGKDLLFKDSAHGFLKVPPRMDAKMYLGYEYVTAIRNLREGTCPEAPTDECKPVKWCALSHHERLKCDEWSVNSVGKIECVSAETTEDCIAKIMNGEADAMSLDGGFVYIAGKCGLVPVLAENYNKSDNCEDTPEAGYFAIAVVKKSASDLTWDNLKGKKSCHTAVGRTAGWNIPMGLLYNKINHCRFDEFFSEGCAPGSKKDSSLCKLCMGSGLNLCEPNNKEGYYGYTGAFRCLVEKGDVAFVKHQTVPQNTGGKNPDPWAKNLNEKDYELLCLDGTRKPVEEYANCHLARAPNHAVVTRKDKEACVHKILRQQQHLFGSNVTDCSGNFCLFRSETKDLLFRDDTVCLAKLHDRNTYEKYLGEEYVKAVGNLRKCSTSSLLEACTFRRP

B1: cluster of differentiation 14 (CD14) (receptor, UniProt P08571 20-345, looked up)
chain: TTPEPCELDDEDFRCVCNFSEPQPDWSEAFQCVSAVEVEIHAGGLNLEPFLKRVDADADPRQYADTVKALRVRRLTVGAAQVPAQLLVGALRVLAYSRLKELTLEDLKITGTMPPLPLEATGLALSSLRLRNVSWATGRSWLAELQQWLKPGLKVLSIAQAHSPAFSCEQVRAFPALTSLDLSDNPGLGERGLMAALCPHKFPAIQNLALRNTGMETPTGVCAALAAAGVQPHSLDLSHNSLRATVNPSAPRCMWSSALNSLNLSFAGLEQVPKGLPAKLRVLDLSCNRLNRAPQPDELPEVDNLTLDGNPFLVPGTALPHEGSMN
notes: CD14, TLR coreceptor; isolated protein used in SPR and native gel; Probably a soluble recombinant CD14; also called WT-CD14; wild-type CD14
With B1, in test [1], binding was put at a Kd of 14 nM, the koff is 0.00033 s⁻¹ and the kon was 24000 M⁻¹ s⁻¹.

B2: peptide TC6 (peptide)
peptide: TTPEPC
notes: designed peptide TC6; also called interference peptide TC6
Turning to B2, the Kd in test [2] stood at 13 nM.

The Kd is a measure of binding affinity in units of concentration. Lower therefore signals a tighter complex. By koff is commonly meant the first-order rate constant of dissociation. As usually defined, the kon is the second-order rate constant of association.
